Tests used:
Tau Isoform 412 = molecular target: T1, Tau Isoform 412 (human, UniProt P10636 2-758); test: screening of hybridoma cell lines; assay not given
T1 construct: Obtained as a lyophilized purified isoform; also called tau412

Tau Isoform 383 [1] = molecular target: T2, Tau Isoform 383 (human, UniProt P10636 2-758); test: screening of hybridoma cell lines; assay not given
T2 construct: Obtained as a lyophilized purified isoform; also called Tau 383; tau383

Tau Isoform 441 = molecular target: T3, Tau Isoform 441 (human, UniProt P10636 2-758); test: screening of hybridoma cell lines; assay not given
T3 construct: Obtained as a lyophilized purified isoform; also called tau441
T3 sequence (P10636 other isoform, or with tags, fused parts or gaps limits assumed): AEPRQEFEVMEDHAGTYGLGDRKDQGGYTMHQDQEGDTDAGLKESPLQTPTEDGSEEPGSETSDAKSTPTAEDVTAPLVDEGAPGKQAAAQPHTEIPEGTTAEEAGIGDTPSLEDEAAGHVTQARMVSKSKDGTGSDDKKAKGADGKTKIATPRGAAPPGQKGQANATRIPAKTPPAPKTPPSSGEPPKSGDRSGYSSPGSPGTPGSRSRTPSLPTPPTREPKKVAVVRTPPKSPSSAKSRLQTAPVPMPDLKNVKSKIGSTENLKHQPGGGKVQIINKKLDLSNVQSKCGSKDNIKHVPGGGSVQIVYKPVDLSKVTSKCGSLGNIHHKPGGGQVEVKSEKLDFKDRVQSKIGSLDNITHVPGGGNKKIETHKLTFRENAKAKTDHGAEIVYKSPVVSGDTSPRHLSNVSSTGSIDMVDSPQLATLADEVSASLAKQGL

Tau Isoform 381 = molecular target: T4, Tau Isoform 381 (human, UniProt P10636 2-758); test: screening of hybridoma cell lines; assay not given
T4 construct: Obtained as a lyophilized purified isoform; also called tau381
T4 sequence (P10636 other isoform, or with tags, fused parts or gaps limits assumed): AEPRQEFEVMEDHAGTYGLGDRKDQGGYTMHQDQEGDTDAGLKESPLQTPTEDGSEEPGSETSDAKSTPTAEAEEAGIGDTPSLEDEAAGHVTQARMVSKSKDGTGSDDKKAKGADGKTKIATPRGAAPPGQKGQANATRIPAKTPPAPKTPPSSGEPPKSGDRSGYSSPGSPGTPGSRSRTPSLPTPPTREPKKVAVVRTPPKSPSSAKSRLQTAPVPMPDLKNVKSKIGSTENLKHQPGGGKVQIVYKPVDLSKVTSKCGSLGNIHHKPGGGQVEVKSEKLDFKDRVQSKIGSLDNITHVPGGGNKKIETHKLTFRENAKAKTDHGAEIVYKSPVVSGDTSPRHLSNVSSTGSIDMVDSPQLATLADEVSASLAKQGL

Tau Isoform 410 = molecular target: T5, Tau Isoform 410 (human, UniProt P10636 2-758); test: screening of hybridoma cell lines; assay not given
T5 construct: Obtained as a lyophilized purified isoform; also called Tau 410; tau410
T5 sequence (P10636 other isoform, or with tags, fused parts or gaps limits assumed): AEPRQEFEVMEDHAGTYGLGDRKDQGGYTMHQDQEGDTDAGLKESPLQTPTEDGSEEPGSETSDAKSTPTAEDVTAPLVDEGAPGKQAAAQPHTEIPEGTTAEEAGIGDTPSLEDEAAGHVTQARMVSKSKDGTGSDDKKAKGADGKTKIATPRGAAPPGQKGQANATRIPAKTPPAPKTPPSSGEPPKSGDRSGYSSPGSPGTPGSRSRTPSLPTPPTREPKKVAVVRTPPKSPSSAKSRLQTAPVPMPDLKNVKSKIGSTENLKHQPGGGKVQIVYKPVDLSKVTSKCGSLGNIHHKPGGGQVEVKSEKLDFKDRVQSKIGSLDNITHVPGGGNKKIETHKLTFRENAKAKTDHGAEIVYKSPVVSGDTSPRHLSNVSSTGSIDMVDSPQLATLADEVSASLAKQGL

Tau Isoform 352 [2] = molecular target: T6, Tau Isoform 352 (human, UniProt P10636 2-758); test: screening of hybridoma cell lines; assay not given
T6 construct: Obtained as a lyophilized purified isoform; also called Tau 352; tau352
T6 sequence (P10636 other isoform, or with tags, fused parts or gaps limits assumed): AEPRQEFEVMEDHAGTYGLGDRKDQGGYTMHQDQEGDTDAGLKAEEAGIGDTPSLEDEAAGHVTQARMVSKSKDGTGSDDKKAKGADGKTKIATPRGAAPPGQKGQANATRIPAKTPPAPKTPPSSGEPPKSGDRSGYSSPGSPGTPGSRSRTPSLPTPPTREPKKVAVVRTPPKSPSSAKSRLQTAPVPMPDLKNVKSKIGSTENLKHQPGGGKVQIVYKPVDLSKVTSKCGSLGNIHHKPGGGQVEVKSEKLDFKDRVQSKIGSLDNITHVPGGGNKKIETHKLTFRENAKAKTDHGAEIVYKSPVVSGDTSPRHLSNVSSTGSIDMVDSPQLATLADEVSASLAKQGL

Tau Isoform 383 [3] = molecular target: T2, Tau Isoform 383; test: ELISA, 100 ng or 50 ng coated tau isoform, antibody 1:1,000 and 1:10,000
Method: More specifically, the 4G11 mAb was tested in an ELISA against 100 ng of each of the Tau isoforms at a 1:1,000 antibody dilution (FIG. 6A); against 100 ng of each of the Tau isoforms at a 1:10,000 antibody dilution (FIG. 6B); against 50 ng of each of the Tau isoforms at a 1:1,000 antibody dilution (FIG. 6C); and against 50 ng of each of the Tau isoforms at a 1:10,000 antibody dilution (FIG. 6D). […] The highest binding levels were found using 100 ng of the tau isoform with an antibody dilution of 1:1,000.
Antibody 4G11 was tested in an ELISA against 100 ng and 50 ng of the six human Tau isoform using antibodies dilutions of 1:1,000 and 1:10,000. Both 4G11 stored at −80° C. as well as a lyophilized form stored at ambient temperature were compared in this assay and the results are provided in FIGS. 6A-D (the left bar for each isoform are the results of the antibody stored at −80° C. and the right bar for each isoform is the lyophilized form, stored at 25° C.

Tau Isoform 352 [4] = molecular target: T6, Tau Isoform 352; test: not named in the sentence (summary of antibody generation)

T1 sequence (P10636 other isoform, or with tags, fused parts or gaps limits assumed): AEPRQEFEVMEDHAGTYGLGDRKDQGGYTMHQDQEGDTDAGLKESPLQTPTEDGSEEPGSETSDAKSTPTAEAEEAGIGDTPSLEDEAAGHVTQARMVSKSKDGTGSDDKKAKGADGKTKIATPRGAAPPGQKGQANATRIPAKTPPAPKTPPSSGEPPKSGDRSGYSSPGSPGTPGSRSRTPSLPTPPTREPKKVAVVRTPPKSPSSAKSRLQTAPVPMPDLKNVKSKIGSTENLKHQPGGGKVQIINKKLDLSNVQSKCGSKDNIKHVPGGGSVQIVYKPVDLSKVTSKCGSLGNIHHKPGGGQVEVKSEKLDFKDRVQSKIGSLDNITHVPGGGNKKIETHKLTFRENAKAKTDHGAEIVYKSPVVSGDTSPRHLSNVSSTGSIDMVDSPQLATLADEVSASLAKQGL
T2 sequence (P10636 other isoform, or with tags, fused parts or gaps limits assumed): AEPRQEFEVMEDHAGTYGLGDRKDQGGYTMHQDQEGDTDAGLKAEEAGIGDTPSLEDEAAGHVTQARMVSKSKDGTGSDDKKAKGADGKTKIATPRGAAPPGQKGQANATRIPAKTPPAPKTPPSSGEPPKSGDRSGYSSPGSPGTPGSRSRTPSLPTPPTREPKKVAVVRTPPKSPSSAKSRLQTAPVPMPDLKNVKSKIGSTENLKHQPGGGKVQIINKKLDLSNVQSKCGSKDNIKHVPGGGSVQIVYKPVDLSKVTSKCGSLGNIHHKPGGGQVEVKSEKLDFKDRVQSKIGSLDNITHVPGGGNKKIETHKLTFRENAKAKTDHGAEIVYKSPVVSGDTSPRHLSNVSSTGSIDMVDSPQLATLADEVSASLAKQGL

| binding result (Tau Isoform 412) | binding result (Tau Isoform 383 [1]) | binding result (Tau Isoform 441) | binding result (Tau Isoform 381) | binding result (Tau Isoform 410) | binding result (Tau Isoform 352 [2]) | binding result (Tau Isoform 383 [3]) | binding result (Tau Isoform 352 [4]) | Binder |
| --- | --- | --- | --- | --- | --- | --- | --- | --- |
| binds | binds | binds | binds | binds | binds | – | – | monoclonal antibody 1A6 (antibody, IgM, V domains shown, Mouse hybridoma antibody (h1A6, ATCC PTA-122038), from a mouse immunized with tau 352; also called Tau 1A6; mAb 1A6) VH: DVQLVESGGGLVQPGGSRKLSCAASGFTFSSFGMHWVRQVPEKGLEWVAYISSGSSTIYYADTVKGRFTISRDNPKNTLFLQMTSLRSEDTAMYYCASNQSPTGFAYWGQGTLVTVSA VL: DVVMTQTPLSLPVSLGDQASISCRSSQSLVHSNGNTYLHWYLQKPGQSPKLLIYKVSNRFSGVPDRFSGSGSGTDFTLKISRVEAEDLGVYFCSQSTHVPLTFGAGTKLELK |
| binds | – | binds | binds | binds | – | binds | binds | monoclonal antibody 4G11 (antibody, IgA, V domains shown, also called Tau 4G11; mAb 4G11) VH: EVQLVESGGGLVQPKGSLKLSCAASGFTFNIYAMNWVRQAPGKGLEWVARIRSKSNNYATYYADSMKDRFTISRDDSQSMLYLQMNNLKTEDTAMYYCVRHGNYYFDYWGQGTTLTVSS VL: ENVLTQSPAIMAASLGQKVTMTCSADSSVSSSYLNWYQQKSGASPKPLIHRTSNLASGVPARFSGSGSGTSYSLTISSVEAEDDATYYCQQWSGYPFIFTFGSGTKLEIK |
